Assay results from a protein production outcome set (Wang et al. 2014).

Assay: label from the status in PepcDB records

Sequence	protein production
MLISIESKEHYRILCIDGGSTDQTIPMIERLQRELKHISLIQLQNASIATCINKGLMDIKMTDPHDSDAFMVINPTSIVLPGKLDRLTAAFKNNDNIDMVIGQRAYNYHGEWKLKSADEFIKDNRIVTLTEQPDLLSMMSFDGKLFSAKFAELQCDETLANTYNHAILVKAMQKATDIHLVSQMIVGDNDIDTHATSNDEDFNRYIIEIMKIRQRVMEMLLLPEQRLLYSDMVDRILFNNSLKYYMNEHPAVTHTTIQLVKDYIMSMQHSDYVSQNMFDIINTVEFIGENWDREIYELWRQTLIQVGINRPTYKKFLIQLKGRKFAHRTKSMLKRLEHHHHHH	failed
METALVSIIMPMYNAGKFLSKSIESVLEQTYQNWELLLIDDGSKDDSIDIALAFMEKDSRIFLLKNEQNMGIAKTRNKGIEASKGQYIAFLDSDDLWLPNKLEVQVKWMEEKKLLFTCSSYFVCNENGNITHERNFSEGPQTYQDLLKTNTIGCLTVVVESNLLKRHLMPDLKHEDYATWLNILKEINTVYFINEKLAIYRKLTTSTSSNKWNTISWVWKILRQNEQFSVIKSSFYLMRFLFYTTFKYAKNELEHHHHHH	not failed
MPTPRPEPAAPPGNNQAGPPAGGPIISPTDLIAIQPPRAVAGDFVPDEVLVTVDGDAGAVQQIAASFGLEVRSQRQSRLLGTTLVRFGIPDGRPVGVVLAQLAADGRTQRREPNHIYSLQQAAGIVNYAFDRIALDAKQASGENIRVAVIDTGIDDTNPALAGVIAAQFDAMPGVPVEKRDHGTSIDGLIAGVGALEGMAPGARIYHARAFEGGKSTMDVILSALDWAAEQNVSIINMSFVGPKNDLLGAACRNARALGMVLVAAAGNNGPKAPYGYPAAFDGVIAVTATDAKDALMPQANRGAYVFISAPGVEMVAPSGAGSDVVTGTSFAAAIVSGAIANLLHASPGRTADDIEKALAATAKDLGPKGRDNDFGYGLLDIKAAEAAKE	failed
MKEIKYLIPYVIFTSFSYYFAKNGVEQVSPSLFMGIRYLLSGLILLPFAKKLRITKNIILLAIMTSTSTAFWAYGLLYVSPAESAVLSYSMPIFSLPIAFLMVSERPSKVEIIGIVIGFTGVIIYGIPLMKGFTIFGAVLTISNAVFWASFTVFYRKLKEEDPFSTNAMQFLIGSLFLFALVPLDPSHNFSLSFAVDVIWMATLGGALQFILWNFMVKISAVNRITVLAFAVPIFTTILGVILSHEIPSGLAIAGVIIMFTGIFVSRLKGGISIVRETSG	failed
MKANFGYITPVPLNMELIDISLSKTQKRTPTVIHPQYNIVKIRMFYMRKVKHAGNEFASRLGTILTDFPRIEDIHPFYGDLINVLYDRDHYKLALGHVNAAKNGIEKVSKEFVKLLKFADSLYRCKQLKRAALGRMASAAKKLGKTLEYLEEVRMHMSRLPSIDLSGRTLLVCGFPNVGKSSFVRKISRADVEVQPYPFTTKSLYVGHFDYKYLQWQVIDTPGILDQPLENRNTIEMLSITALAHIKAVVLYFIDLSETCGYSVEEQMDLFNTLNPLLSSNMVIVLSKSDVLGLSGMEDKKAIMSFLEGKKYMEMSCEKEENIDAVKAMACDLLLDERFERKINSERLSEYINRITIVRPKELREKAESFICSREVTEIENEQERYLIPEEYRYDIVPEIVDGKNVADFFDPDIEKKLKEVEEEEEGLLPMYCKTYDVLSPEERALKEEVVAGIERRRIINRLREKKRLPDSWKHRSRNSGGDIAVHVRRDSKTQVAQPPRLPSKKKARFDDKHYYDRKPKHLYRGRK	failed
MERNRRRNADNNTVVDQGGVFFDGCDTDEAFGPSSRDVPFQHDSVKSKPNLYGGG	not failed
MVLPSSHRILVVDDNAVTRYSVRRVLEHHQFVVEEAGTGGEGLVRLAAEAFAAVVLDVNLPDMSGFDIVRTLRAEPRTALLPVVHVSAASIATGDMITGLDAGADAYLIHPVDPNVLVATLRTLLRARNAEEALRLSEARFREIFEHIGAPIAVVDAQLHTQEANAAFQRLIGSATPCEAINVPGLDQCATVQALTAALGRRERWSGTLSILRDGAVRETEWRVSPYREPDLGLLFVEDVTEQRLREREQRQELDTATSELAHQIAERQRTEIQLLQAQKMEALGKLTGGIAHDFNNLLTSIISGLDMIQLAVESNRIERVPRLAEIATGSAHRAAALTQRMLAFARKQSLDAQPFDVNARVRSLEDMLRRSIGENIALELQLAEAPLVAIADANQLENVVLNLVINARDALQGHGTIRIQSAPHTAYNDPELEDGDYVAVNVIDDGSGIDPAILSQVFEPFFTTKPIGEGTGLGLSMTYGFARQSGGTARITSTLGSGTTVALLLPRGLTVGEALPPPPPNAPRGRSQRILLVDDTDVVRMMVSEVLSDAGYHVIEAENADGALAQLRADAQIDMVVSDVGLPGMNGRDMADVARDLRPGLPILFITGYAENAATRQEFLAEGMALLPKPFSLNDLLNTVSRMLG	failed
